Numbering of substitutions follows the chain as printed.
B1: NRC3_wobSeed30_DR1_C12T_o1 (dsDNA)
DNA 1: GCACTAGCAGGTCAAGGGTCACTCAAGATTAGTCCGGCGATTGACAGCGTAGAATGAAGG
DNA 2: CCTTCATTCTACGCTGTCAATCGCCGGACTAATCTTGAGTGACCCTTGACCTGCTAGTGC
B2: NRC3_wobSeed29_DR1_C8G_o1 (dsDNA)
DNA 1: GCGCTTAGGGGTCAAAGGTTATAGCATGAATAGAATGCGATTGACAGCGTAGAATGAAGG
DNA 2: CCTTCATTCTACGCTGTCAATCGCATTCTATTCATGCTATAACCTTTGACCCCTAAGCGC
B3: NRC3_wobSeed43_DR1_A20C_o1 (dsDNA)
DNA 1: GCCCAGACAGGTGAAAGGTCACTCAGTCTGGTACGCGCGATTGACAGCGTAGAATGAAGG
DNA 2: CCTTCATTCTACGCTGTCAATCGCGCGTACCAGACTGAGTGACCTTTCACCTGTCTGGGC
B4: NRC3_wobSeed114_DR4_A8G_o1 (dsDNA)
DNA 1: GCAATACGGGGTCATCGTAGGCCAGAGTACGCACAGGCGATTGACAGCGTAGAATGAAGG
DNA 2: CCTTCATTCTACGCTGTCAATCGCCTGTGCGTACTCTGGCCTACGATGACCCCGTATTGC
B5: NRC3_wobSeed121_DR5_C30T_o1 (dsDNA)
DNA 1: GCCAAACTAGGTCACCGGAAGGTCAAAGTTCGCATGGCGATTGACAGCGTAGAATGAAGG
DNA 2: CCTTCATTCTACGCTGTCAATCGCCATGCGAACTTTGACCTTCCGGTGACCTAGTTTGGC
B6: NRC3_wobSeed73_DR3_T8A_o1 (dsDNA)
DNA 1: GCCAAACAAGGTCACAGAGGTCAAAGTCCGTGCGTAGCGATTGACAGCGTAGAATGAAGG
DNA 2: CCTTCATTCTACGCTGTCAATCGCTACGCACGGACTTTGACCTCTGTGACCTTGTTTGGC
B7: NRC3_wobSeed42_DR1_C19G_o1 (dsDNA)
DNA 1: GCTATACAGGGTCAAAGGGCAGAGTACGAATGTCGAGCGATTGACAGCGTAGAATGAAGG
DNA 2: CCTTCATTCTACGCTGTCAATCGCTCGACATTCGTACTCTGCCCTTTGACCCTGTATAGC
B8: NRC3_wobSeed27_DR1_A12G_o1 (dsDNA)
DNA 1: GCACTCGGAGGGCAAAGGTCAGAGCTACGCCAGTGAGCGATTGACAGCGTAGAATGAAGG
DNA 2: CCTTCATTCTACGCTGTCAATCGCTCACTGGCGTAGCTCTGACCTTTGCCCTCCGAGTGC
B9: NRC3_wobSeed97_DR4_T8A_o1 (dsDNA)
DNA 1: GCCAAACAAGGTCACGAAAGGTCAAAGTCGAATGACGCGATTGACAGCGTAGAATGAAGG
DNA 2: CCTTCATTCTACGCTGTCAATCGCGTCATTCGACTTTGACCTTTCGTGACCTTGTTTGGC
B10: NRC3_wobSeed97_DR4_T8G_o1 (dsDNA)
DNA 1: B9 DNA 1 with A8G
DNA 2: B9 DNA 2 with T53C
B11: NRC3_random_hg19_13_o1 (dsDNA)
DNA 1: GCCACATCTGTAATCCCAGCACTTTGGGAGGCCAAGGCGATTGACAGCGTAGAATGAAGG
DNA 2: CCTTCATTCTACGCTGTCAATCGCCTTGGCCTCCCAAAGTGCTGGGATTACAGATGTGGC
B12: NRC3_wobSeed28_DR1_C7G_o1 (dsDNA)
DNA 1: GCCCTAGTGGGCCAAAGGTCATTGATTCCAATGCTCGCGATTGACAGCGTAGAATGAAGG
DNA 2: CCTTCATTCTACGCTGTCAATCGCGAGCATTGGAATCAATGACCTTTGGCCCACTAGGGC
B13: NRC3_wobSeed38_DR1_T16G_o1 (dsDNA)
DNA 1: GCCCTGCTAGGTCAAGGGTCAGCTAAAGCAGCTCGCGCGATTGACAGCGTAGAATGAAGG
DNA 2: CCTTCATTCTACGCTGTCAATCGCGCGAGCTGCTTTAGCTGACCCTTGACCTAGCAGGGC
B14: NRC3_wobSeed138_DR5_C23T_o1 (dsDNA)
DNA 1: GCGATACAGGGTCAGCTAGAGGTCAGAGTATGGAAAGCGATTGACAGCGTAGAATGAAGG
DNA 2: CCTTCATTCTACGCTGTCAATCGCTTTCCATACTCTGACCTCTAGCTGACCCTGTATCGC
B15: NRC3_wobSeed123_DR5_A12T_o1 (dsDNA)
DNA 1: GCCCTCGGAGGTCAACAGGAGGTCAGAGCTGCCAGAGCGATTGACAGCGTAGAATGAAGG
DNA 2: CCTTCATTCTACGCTGTCAATCGCTCTGGCAGCTCTGACCTCCTGTTGACCTCCGAGGGC
B16: NRC3_wobSeed109_DR4_C7T_o1 (dsDNA)
DNA 1: GCCGTCTAAGGTCATAGGAGGTCAGTGAAGACAGATGCGATTGACAGCGTAGAATGAAGG
DNA 2: CCTTCATTCTACGCTGTCAATCGCATCTGTCTTCACTGACCTCCTATGACCTTAGACGGC
B17: NRC3_random_hg19_25_o1 (dsDNA)
DNA 1: GCGAGCCACCACGCCTGGCCTCTCCGATCTCCAACTGCGATTGACAGCGTAGAATGAAGG
DNA 2: CCTTCATTCTACGCTGTCAATCGCAGTTGGAGATCGGAGAGGCCAGGCGTGGTGGCTCGC

Target: RXRa (Homo sapiens, UniProt P19793)
Experiment: no ligand; PBM; 180 nM; PBS pH 7.4, 2% milk, 0.02% Triton X-100, 1 mM DTT, BSA, 0.4 mg/ml salmon testes DNA
Details: tags: His cleaved; chain copies: 2; label: surface-attached array probe

Sequence of RXRa (P19793 whole entry): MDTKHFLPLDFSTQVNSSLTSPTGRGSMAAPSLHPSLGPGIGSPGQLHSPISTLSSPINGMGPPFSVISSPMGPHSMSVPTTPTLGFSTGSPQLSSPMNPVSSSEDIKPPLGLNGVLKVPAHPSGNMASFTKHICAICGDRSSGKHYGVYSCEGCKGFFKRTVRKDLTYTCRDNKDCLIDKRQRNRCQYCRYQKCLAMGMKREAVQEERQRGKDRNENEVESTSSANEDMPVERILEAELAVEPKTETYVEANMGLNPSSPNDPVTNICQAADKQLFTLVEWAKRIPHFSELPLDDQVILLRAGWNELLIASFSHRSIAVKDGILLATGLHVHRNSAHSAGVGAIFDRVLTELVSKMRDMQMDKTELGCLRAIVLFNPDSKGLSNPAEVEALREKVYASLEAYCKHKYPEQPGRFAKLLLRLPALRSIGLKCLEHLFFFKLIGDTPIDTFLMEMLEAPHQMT

| Binder | binding signal |
| --- | --- |
| B1 | 8.53 PBM z-score against 500 random probes |
| B2 | 10.6 PBM z-score against 500 random probes |
| B3 | 8.23 PBM z-score against 500 random probes |
| B4 | 9.29 PBM z-score against 500 random probes |
| B5 | 8.07 PBM z-score against 500 random probes |
| B6 | 10.1 PBM z-score against 500 random probes |
| B7 | 8.22 PBM z-score against 500 random probes |
| B8 | 8.52 PBM z-score against 500 random probes |
| B9 | 9.58 PBM z-score against 500 random probes |
| B10 | 9.84 PBM z-score against 500 random probes |
| B11 | 0.22 PBM z-score against 500 random probes |

Target: PPARg:RXRa (Homo sapiens, UniProt P37231;P19793 full;full)
Experiment: no ligand; PBM; 180 nM : 90 nM RXRa; PBS pH 7.4, 2% milk, 0.02% Triton X-100, 1 mM DTT, BSA, 0.4 mg/ml salmon testes DNA
Details: tags: His kept;His cleaved; copies: 1;1; label: surface-attached array probe

Sequence of PPARg:RXRa (P37231 29-505, chain 1 of 2): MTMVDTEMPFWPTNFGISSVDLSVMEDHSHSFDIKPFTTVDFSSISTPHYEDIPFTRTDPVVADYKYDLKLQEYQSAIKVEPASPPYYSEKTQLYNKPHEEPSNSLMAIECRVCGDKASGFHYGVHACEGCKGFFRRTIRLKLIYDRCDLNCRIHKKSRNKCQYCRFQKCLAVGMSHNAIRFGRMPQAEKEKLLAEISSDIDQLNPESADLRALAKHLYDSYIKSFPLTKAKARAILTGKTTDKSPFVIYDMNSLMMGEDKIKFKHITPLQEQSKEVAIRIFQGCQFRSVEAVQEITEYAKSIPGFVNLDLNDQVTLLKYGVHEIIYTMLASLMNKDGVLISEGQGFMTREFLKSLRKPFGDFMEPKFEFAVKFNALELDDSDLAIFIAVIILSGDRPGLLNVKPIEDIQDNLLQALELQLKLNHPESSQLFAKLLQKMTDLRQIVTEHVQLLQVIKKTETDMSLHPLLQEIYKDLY
Sequence of PPARg:RXRa (P19793 whole entry, chain 2 of 2): as the sequence (P19793 whole entry) above

| Binder | binding signal |
| --- | --- |
| B12 | 13.1 PBM z-score against 500 random probes |
| B1 | 11.2 PBM z-score against 500 random probes |
| B3 | 10.4 PBM z-score against 500 random probes |
| B13 | 10.5 PBM z-score against 500 random probes |
| B5 | 10.6 PBM z-score against 500 random probes |
| B7 | 9.96 PBM z-score against 500 random probes |
| B8 | 9.6 PBM z-score against 500 random probes |
| B14 | 5.41 PBM z-score against 500 random probes |
| B11 | 0.3 PBM z-score against 500 random probes |

Target: RARb:RXRa (Homo sapiens, UniProt P10826;P19793 full;full)
Experiment: no ligand; PBM; 270 nM : 90 nM RXRa; PBS pH 7.4, 2% milk, 0.02% Triton X-100, 1 mM DTT, BSA, 0.4 mg/ml salmon testes DNA
Details: tags: His kept;His cleaved; copies: 1;1; label: surface-attached array probe
Outline: (§1)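 Random background probes are the reference for binding z-scores. These scores derive from regression-normalized fluorescence on custom Agilent 4×180K protein-binding microarrays incubated 1 h with ligand-free nuclear receptor dimers. Binding was detected with antibodies against each partner (one per run).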

| Binder | binding signal |
| --- | --- |
| B2 | 5.84 PBM z-score against 500 random probes |
| B6 | 6.08 PBM z-score against 500 random probes |
| B9 | 6.14 PBM z-score against 500 random probes |
| B10 | 6.03 PBM z-score against 500 random probes |
| B15 | 5.85 PBM z-score against 500 random probes |

Target: VDR:RXRa (Homo sapiens, UniProt P11473;P19793 full;full)
Experiment: as above
Details: tags: His kept;His cleaved; copies: 1;1; label: surface-attached array probe
Outline: as §1

| Binder | binding signal |
| --- | --- |
| B2 | 7.19 PBM z-score against 500 random probes |
| B4 | 7.09 PBM z-score against 500 random probes |
| B6 | 8.7 PBM z-score against 500 random probes |
| B9 | 7.94 PBM z-score against 500 random probes |
| B10 | 7.51 PBM z-score against 500 random probes |

Target: LXRa:RXRa (Homo sapiens, UniProt Q13133;P19793 full;full)
Experiment: as above
Details: tags: His kept;His cleaved; copies: 1;1; label: surface-attached array probe
Outline: as §1

Sequence of LXRa:RXRa (Q13133 whole entry, chain 1 of 2): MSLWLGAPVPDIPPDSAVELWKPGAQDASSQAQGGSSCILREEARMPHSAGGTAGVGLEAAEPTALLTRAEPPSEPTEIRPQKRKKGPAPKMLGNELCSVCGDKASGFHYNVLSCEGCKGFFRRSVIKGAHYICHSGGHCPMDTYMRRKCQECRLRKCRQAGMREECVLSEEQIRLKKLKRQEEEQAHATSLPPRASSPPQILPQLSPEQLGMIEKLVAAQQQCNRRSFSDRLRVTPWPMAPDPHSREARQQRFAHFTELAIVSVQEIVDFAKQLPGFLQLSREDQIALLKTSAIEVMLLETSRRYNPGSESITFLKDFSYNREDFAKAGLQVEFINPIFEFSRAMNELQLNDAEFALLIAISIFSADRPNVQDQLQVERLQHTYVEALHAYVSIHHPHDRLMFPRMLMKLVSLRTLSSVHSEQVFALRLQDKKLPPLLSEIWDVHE
Sequence of LXRa:RXRa (P19793 whole entry, chain 2 of 2): as the sequence (P19793 whole entry) above

| Binder | binding signal |
| --- | --- |
| B16 | 8.01 PBM z-score against 500 random probes |
| B2 | 7.36 PBM z-score against 500 random probes |
| B4 | 7.63 PBM z-score against 500 random probes |
| B6 | 7.79 PBM z-score against 500 random probes |
| B9 | 8.85 PBM z-score against 500 random probes |
| B10 | 8.87 PBM z-score against 500 random probes |
| B15 | 6.72 PBM z-score against 500 random probes |
| B17 | -0.38 PBM z-score against 500 random probes |

Target: PPARa:RXRa (Homo sapiens, UniProt Q07869;P19793 full;full)
Experiment: as above
Details: tags: GST kept;His cleaved; copies: 1;1; label: surface-attached array probe
Outline: as §1

Sequence of PPARa:RXRa (Q07869 whole entry, chain 1 of 2): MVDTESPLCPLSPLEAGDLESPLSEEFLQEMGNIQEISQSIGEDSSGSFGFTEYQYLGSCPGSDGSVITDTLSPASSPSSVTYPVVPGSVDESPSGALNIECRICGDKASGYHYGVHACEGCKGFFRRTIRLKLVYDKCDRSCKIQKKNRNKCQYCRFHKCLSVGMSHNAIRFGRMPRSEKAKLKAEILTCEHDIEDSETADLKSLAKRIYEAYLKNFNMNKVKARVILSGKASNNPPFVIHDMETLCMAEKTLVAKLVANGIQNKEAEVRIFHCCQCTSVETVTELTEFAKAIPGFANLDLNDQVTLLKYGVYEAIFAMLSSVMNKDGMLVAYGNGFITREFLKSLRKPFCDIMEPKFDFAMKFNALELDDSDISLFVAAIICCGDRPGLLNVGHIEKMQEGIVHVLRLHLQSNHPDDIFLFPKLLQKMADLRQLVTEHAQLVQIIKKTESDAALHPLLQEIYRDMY
Sequence of PPARa:RXRa (P19793 whole entry, chain 2 of 2): as the sequence (P19793 whole entry) above

| Binder | binding signal |
| --- | --- |
| B2 | 7.64 PBM z-score against 500 random probes |
| B4 | 6.87 PBM z-score against 500 random probes |
| B6 | 6.92 PBM z-score against 500 random probes |
| B9 | 7 PBM z-score against 500 random probes |
| B10 | 6.96 PBM z-score against 500 random probes |
| B15 | 6.94 PBM z-score against 500 random probes |

Target: LXRb:RXRa (Homo sapiens, UniProt P55055;P19793 full;full)
Experiment: as above
Details: tags: His kept;His cleaved; copies: 1;1; label: surface-attached array probe
Outline: as §1

Sequence of LXRb:RXRa (P55055 whole entry, chain 1 of 2): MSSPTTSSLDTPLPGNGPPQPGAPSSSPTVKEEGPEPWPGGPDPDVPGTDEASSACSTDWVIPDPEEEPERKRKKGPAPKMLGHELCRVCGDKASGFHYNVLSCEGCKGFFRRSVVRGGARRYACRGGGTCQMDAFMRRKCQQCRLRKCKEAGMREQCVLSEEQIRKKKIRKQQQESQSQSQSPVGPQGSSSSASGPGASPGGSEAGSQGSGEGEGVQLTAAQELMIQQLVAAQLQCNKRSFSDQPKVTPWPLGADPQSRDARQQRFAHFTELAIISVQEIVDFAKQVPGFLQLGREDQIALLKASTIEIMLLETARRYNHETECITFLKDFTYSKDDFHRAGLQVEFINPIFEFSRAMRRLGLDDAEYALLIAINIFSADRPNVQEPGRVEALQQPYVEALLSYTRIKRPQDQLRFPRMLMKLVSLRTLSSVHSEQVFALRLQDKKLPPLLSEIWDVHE
Sequence of LXRb:RXRa (P19793 whole entry, chain 2 of 2): as the sequence (P19793 whole entry) above

| Binder | binding signal |
| --- | --- |
| B2 | 7.75 PBM z-score against 500 random probes |
| B4 | 6.75 PBM z-score against 500 random probes |
| B6 | 7.37 PBM z-score against 500 random probes |
| B9 | 8.12 PBM z-score against 500 random probes |
| B10 | 7.93 PBM z-score against 500 random probes |
| B17 | -0.09 PBM z-score against 500 random probes |

Target: FXR:RXRa (Homo sapiens, UniProt Q96RI1;P19793 full;full)
Experiment: as above
Details: tags: His kept;His cleaved; copies: 1;1; label: surface-attached array probe
Outline: as §1

Sequence of FXR:RXRa (Q96RI1 whole entry, chain 1 of 2): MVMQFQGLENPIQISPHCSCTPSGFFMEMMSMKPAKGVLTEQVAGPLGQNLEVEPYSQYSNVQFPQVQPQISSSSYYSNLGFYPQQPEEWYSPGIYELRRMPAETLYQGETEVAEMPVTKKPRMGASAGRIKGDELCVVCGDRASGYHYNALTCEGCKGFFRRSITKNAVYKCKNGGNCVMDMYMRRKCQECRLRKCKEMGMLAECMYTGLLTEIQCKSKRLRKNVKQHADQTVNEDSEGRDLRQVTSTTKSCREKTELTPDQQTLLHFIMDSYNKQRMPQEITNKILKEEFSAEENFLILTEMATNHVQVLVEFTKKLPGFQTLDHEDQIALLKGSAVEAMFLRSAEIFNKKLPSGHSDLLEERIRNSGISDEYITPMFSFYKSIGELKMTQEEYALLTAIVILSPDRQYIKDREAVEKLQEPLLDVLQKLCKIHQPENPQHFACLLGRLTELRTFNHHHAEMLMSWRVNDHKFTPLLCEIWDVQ
Sequence of FXR:RXRa (P19793 whole entry, chain 2 of 2): as the sequence (P19793 whole entry) above

| Binder | binding signal |
| --- | --- |
| B16 | 8.24 PBM z-score against 500 random probes |
| B2 | 9.03 PBM z-score against 500 random probes |
| B4 | 8.6 PBM z-score against 500 random probes |
| B6 | 8.84 PBM z-score against 500 random probes |
| B9 | 8.87 PBM z-score against 500 random probes |
| B10 | 9.24 PBM z-score against 500 random probes |
| B15 | 7.97 PBM z-score against 500 random probes |

Target: PXR:RXRa (Homo sapiens, UniProt O75469;P19793 full;full)
Experiment: as above
Details: tags: His kept;His cleaved; copies: 1;1; label: surface-attached array probe
Outline: as §1

Sequence of PXR:RXRa (O75469 whole entry, chain 1 of 2): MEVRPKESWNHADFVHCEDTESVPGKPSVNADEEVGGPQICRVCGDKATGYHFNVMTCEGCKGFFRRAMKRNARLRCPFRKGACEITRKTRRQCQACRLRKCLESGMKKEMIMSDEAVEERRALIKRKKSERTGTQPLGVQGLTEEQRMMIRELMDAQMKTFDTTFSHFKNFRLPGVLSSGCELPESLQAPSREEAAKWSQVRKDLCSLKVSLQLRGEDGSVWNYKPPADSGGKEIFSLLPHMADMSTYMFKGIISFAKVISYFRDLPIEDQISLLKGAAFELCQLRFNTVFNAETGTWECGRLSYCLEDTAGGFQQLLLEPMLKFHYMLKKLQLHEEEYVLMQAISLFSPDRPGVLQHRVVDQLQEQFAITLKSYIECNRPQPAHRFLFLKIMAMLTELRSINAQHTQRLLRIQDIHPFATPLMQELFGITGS
Sequence of PXR:RXRa (P19793 whole entry, chain 2 of 2): as the sequence (P19793 whole entry) above

| Binder | binding signal |
| --- | --- |
| B16 | 7.34 PBM z-score against 500 random probes |
| B2 | 7.35 PBM z-score against 500 random probes |
| B4 | 6.64 PBM z-score against 500 random probes |
| B6 | 7.48 PBM z-score against 500 random probes |
| B9 | 7.87 PBM z-score against 500 random probes |
| B10 | 7.9 PBM z-score against 500 random probes |
| B15 | 6.48 PBM z-score against 500 random probes |
| B17 | -0.45 PBM z-score against 500 random probes |

Target: RARa:RXRa (Homo sapiens, UniProt P10276;P19793 full;full)
Experiment: as above
Details: tags: His kept;His cleaved; copies: 1;1; label: surface-attached array probe
Outline: as §1

Sequence of RARa:RXRa (P10276 whole entry, chain 1 of 2): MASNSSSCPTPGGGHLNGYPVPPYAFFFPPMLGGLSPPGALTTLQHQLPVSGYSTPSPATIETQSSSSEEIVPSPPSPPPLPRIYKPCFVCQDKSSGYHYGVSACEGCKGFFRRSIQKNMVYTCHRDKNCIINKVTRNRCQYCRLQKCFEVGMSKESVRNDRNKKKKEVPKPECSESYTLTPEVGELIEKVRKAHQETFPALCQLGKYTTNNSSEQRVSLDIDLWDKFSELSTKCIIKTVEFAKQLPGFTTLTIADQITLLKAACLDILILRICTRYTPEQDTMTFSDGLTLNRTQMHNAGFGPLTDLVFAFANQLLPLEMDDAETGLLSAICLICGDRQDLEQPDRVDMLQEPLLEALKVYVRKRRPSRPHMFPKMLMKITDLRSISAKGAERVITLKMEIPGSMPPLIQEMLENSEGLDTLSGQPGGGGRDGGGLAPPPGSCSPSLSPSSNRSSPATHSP
Sequence of RARa:RXRa (P19793 whole entry, chain 2 of 2): as the sequence (P19793 whole entry) above

| Binder | binding signal |
| --- | --- |
| B12 | 7.08 PBM z-score against 500 random probes |
| B16 | 7.11 PBM z-score against 500 random probes |
| B1 | 8.23 PBM z-score against 500 random probes |
| B2 | 9.11 PBM z-score against 500 random probes |
| B3 | 7.65 PBM z-score against 500 random probes |
| B13 | 7.26 PBM z-score against 500 random probes |
| B4 | 7.2 PBM z-score against 500 random probes |
| B5 | 8.54 PBM z-score against 500 random probes |
| B6 | 8.63 PBM z-score against 500 random probes |
| B7 | 7.26 PBM z-score against 500 random probes |
| B8 | 7.48 PBM z-score against 500 random probes |
| B14 | 7.75 PBM z-score against 500 random probes |
| B9 | 8.72 PBM z-score against 500 random probes |
| B10 | 8.33 PBM z-score against 500 random probes |
| B15 | 7.44 PBM z-score against 500 random probes |
| B11 | 0.01 PBM z-score against 500 random probes |
| B17 | -0.44 PBM z-score against 500 random probes |

Target: RARg:RXRa (Homo sapiens, UniProt P13631;P19793 full;full)
Experiment: as above
Details: tags: His kept;His cleaved; copies: 1;1; label: surface-attached array probe
Outline: as §1

Sequence of RARg:RXRa (P13631 whole entry, chain 1 of 2): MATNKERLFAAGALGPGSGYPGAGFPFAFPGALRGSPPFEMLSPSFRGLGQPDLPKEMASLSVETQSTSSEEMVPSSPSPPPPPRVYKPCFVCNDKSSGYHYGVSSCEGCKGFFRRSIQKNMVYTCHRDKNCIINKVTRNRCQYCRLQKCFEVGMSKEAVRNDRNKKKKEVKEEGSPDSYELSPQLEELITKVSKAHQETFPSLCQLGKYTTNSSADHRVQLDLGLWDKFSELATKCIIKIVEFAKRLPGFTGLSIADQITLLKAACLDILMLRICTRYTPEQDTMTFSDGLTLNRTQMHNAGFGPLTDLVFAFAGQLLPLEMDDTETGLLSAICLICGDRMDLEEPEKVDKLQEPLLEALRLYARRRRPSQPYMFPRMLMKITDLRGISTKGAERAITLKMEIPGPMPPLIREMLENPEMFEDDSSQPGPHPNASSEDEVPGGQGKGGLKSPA
Sequence of RARg:RXRa (P19793 whole entry, chain 2 of 2): as the sequence (P19793 whole entry) above

| Binder | binding signal |
| --- | --- |
| B2 | 8.66 PBM z-score against 500 random probes |
| B4 | 7.44 PBM z-score against 500 random probes |
| B6 | 8.47 PBM z-score against 500 random probes |
| B14 | 9.04 PBM z-score against 500 random probes |
| B9 | 8.87 PBM z-score against 500 random probes |
| B10 | 8.98 PBM z-score against 500 random probes |
| B15 | 8.86 PBM z-score against 500 random probes |

Source: publication PMC6555819, “Comprehensive study of nuclear receptor DNA binding provides a revised framework for understanding receptor specificity”
